Results: patent publication US20080085261A1, “Vaccine Adjuvant” (priority 2004, published 2008)

Test system: T regulatory phenotype cells
Parameters: species or system non-human primate
Conditions: in vivo

B1: daclizumab (antibody, chains of the INN, looked up, V domains shown)
VH: QVQLVQSGAEVKKPGSSVKVSCKASGYTFTSYRMHWVRQAPGQGLEWIGYINPSTGYTEYNQKFKDKATITADESTNTAYMELSSLRSEDTAVYYCARGGGVFDYWGQGTLVTVSS
VL: DIQMTQSPSTLSASVGDRVTITCSASSSISYMHWYQQKPGKAPKLLIYTTSNLASGVPARFSGSGSGTEFTLTISSLQPDDFATYYCHQRSTYPLTFGQGTKVEVK
With B1 the “time of maximum depletion in % and number of T regulatory phenotype cells” value was 2 weeks and the “time until which depletion of T regulatory phenotype cells lasted” value was 4 weeks.
